Assay results taken from US20050112698A1 (Bayer, published 2005).

Columns and labels:
[1] = target: T1, Cynomolgus Monkey SCF (cynomolgus monkey, UniProt A0A7N9CAX5 26-189); test: SPR BIAcore, 5000 RU immobilized cSCF, off-rate ranking
T1 construct: Soluble recombinant protein made in house (Bayer); NiNTA purification implies a His tag, but none is described; also called cSCF; cyno SCF
Description: (§1) TABLE 12 Sequences of the CDR3 Vk1 Region of Selected Antibody Clones with Comparison of koff and SCF Inhibitory Activity The off-rates were determined using a high density surface CM5 chip (5000 RU of immobilized cSCF) on BIAcore and are shown with comparison to the original A2-G8 clone. […] The IC₅₀ in the TF-1 proliferation assay was based on an average of two assays with the exception of the A2-G8-IgG (n = 5).
Analysis of Fab binding to cSCF was performed by surface plasmon resonance using a BIAcore 2000 (Biacore, Piscataway, N.J.), according to the manufacturer's instructions and a CM5 chip (Biacore) coated with cSCF. For amine coupling, a research grade CM5 chip was activated using the standard NHS/EDC procedure. Cynomologus monkey SCF was diluted to 20 μg/ml in 10 mM NaAcetate, pH 5.0, and a total of 5000 RU's were coupled to channel 2 of the sensor surface. The remaining active sites were quenched by the addition of 1M ethanolamine, pH 8.0. Channel 1 was subjected to the coupling procedure in the absence of protein and was used as a reference surface. Extracts were diluted 1/5 in HBS-EP running buffer and injected for 2 min using a flow rate of 20 μl/min. The surface was regenerated by two consecutive injections of 25 μl, 10 mM glycine, pH 2.5, using a flow rate of 100 μl/min. The koff was calculated from a single concentration of Fab using BIAevaluation software (Biacore).

[2] = target: T1, Cynomolgus Monkey SCF; test: competition ELISA: cSCF binding to coated human SCFR, Fab 3.1 µg/ml
Description: The extracts containing Fab were also tested for the ability to inhibit SCF binding to the SCF receptor. ELISA plates were coated overnight with 2 μg/ml human SCFR (R&D Systems, Minneapolis, Minn.) in PBS at 4° C. After washing with TBS-T, the plate was blocked with 5 mg/ml BSA in PBS. The extract was diluted 1/5 in PBS buffer containing 12.5 ng/ml cSCF and 1 mg/ml BSA. After a 1 hr incubation at room temperature, 100 μl was added to the blocked ELISA plate and incubated an additional hour. The plate was washed 5 times with TBS-T, and 100 μl of a 0.4 μg/ml solution of anti-SCF (R&D Systems) in 1 mg/ml BSA in PBS was added. After 1 hour the plate was washed and incubated with anti-Mouse-HRP (Sigma, St. Louis, Mo.). The plate was developed with BM Blue POD substrate (Roche Diagnostics, Chicago, Ill.) and read at 370 nm.
as §1

[3] = target: T1, Cynomolgus Monkey SCF; test: cell-based or functional assay
[4] = target: T2, human Stem Cell Factor (human, UniProt P21583 26-189); test: cell-based or functional assay
[5] = target: T1, Cynomolgus Monkey SCF; test: SPR BIAcore 2000, Fab over 185 RU immobilized cSCF
Description: (§2) Affinity measurements were carried out on a BIAcore 2000 (Biacore) at 25° C. […] Purified Fab's were diluted in HBS-EP running buffer at concentrations ranging from 1.95 to 125 nM. A volume of 100 μl was injected using a flow rate of 50 μl/min in Kinject mode. After a 10 min dissociation, 50 μl of 10 mM Glycine, pH 2.5 and 25 μl of 10 mM Glycine, pH 2.0 was injected using a flow rate of 100 μl/min. All samples were run in duplicate. […] Cynomologus monkey SCF was diluted in HBS-EP running buffer at concentrations ranging from 15.6 to 500 nM and 150 μl injected at a flow rate of 50 μl/min. After a 15 min dissociation, 50 μl of 10 mM Glycine, pH 2.5, and 25 μl of 10 mM Glycine, pH 1.5 was injected using a flow rate of 100 μl/min. All samples were run in duplicate. The data was globally fit to the 1 to 1 binding model using BIAevaluation software. The raw experimental data were corrected for instrumental and bulk solvent artifacts by double referencing using both activated and blocked surfaces as controls.
(§3) To evaluate the binding properties of anti-SCF Fabs selected from affinity optimization of the CDR3 loop with SCF, the real time interaction was measured using surface plasmon resonance with the BIAcore 2000. […] The improvement in Kd's are primarily governed by a substantial reduction in the off-rate (koff). […] The affinity constants for Fab binding to human SCF were slightly lower than those Kd's for cynomologus monkey SCF. The panning design, with lower antigen concentrations and extensive washing steps, favors off-rate selection. The affinity of the A2-G8 clone in an IgG vector was measured using the IgG immobilized to the surface of the CM5 chip.

[6] = target: T2, human Stem Cell Factor; test: SPR BIAcore 2000, Fab over 150 RU immobilized hSCF
Description: as §2, §3

[7] = target: T2, human Stem Cell Factor; test: cell-based or functional assay; remark: listed apart in the source
[8] = target: T2, human Stem Cell Factor; test: cell-based or functional assay; remark: listed apart in the source
[9] = target: T2, human Stem Cell Factor; test: BIAcore, Affinity Estimation, Fab
[10] = target: T1, Cynomolgus Monkey SCF; test: cell-based or functional assay; remark: listed apart in the source
[11] = target: T2, human Stem Cell Factor; test: BIAcore, Fab on immobilized SCF
[12] = target: T2, human Stem Cell Factor; test: cell-based or functional assay; remark: listed apart in the source

T2 sequence (P21583 other isoform, or with tags, fused parts or gaps limits assumed): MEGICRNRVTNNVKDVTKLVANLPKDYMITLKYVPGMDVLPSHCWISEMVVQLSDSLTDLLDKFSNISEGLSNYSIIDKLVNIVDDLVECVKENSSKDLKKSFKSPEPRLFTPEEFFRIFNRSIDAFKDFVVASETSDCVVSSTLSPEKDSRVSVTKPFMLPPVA

koff [1] [s⁻¹] | % Inhibition SCF Binding ELISA Assay [2] [%] | IC50 TF-1 cynoSCF Assay [3] [µg/mL] | TF-1 proliferation IC50, fold lower than the A2-G8 Mab [4] [fold] | Kd [5] [nM] | koff [5] [s⁻¹] | kon [5] [M⁻¹ s⁻¹] | Kd [6] [nM] | koff [6] [s⁻¹] | kon [6] [M⁻¹ s⁻¹] | IC50 TF-1 huSCF Assay [7] [µg/mL] | TF-1 Fab assay IC50 [8] [µg/mL] | Kd [9] [nM] | percent inhibition of SCF-induced TF-1 proliferation at 200 ug/ml Fab [10] [%] | percent inhibition of SCF-induced TF-1 proliferation at 200 ug/ml Fab [4] [%] | Kd [11] [nM] | Efficacy IC50 (TF-1 proliferation assay, Fab) [12] [µg/mL] | Binder
0.00075 | 70 | 4.64 | – | – | – | – | – | – | – | – | – | – | – | – | – | – | Fab A8 (light chain CDR3 variant of A2-G8) (Fab, V domains shown, It carries FLAG and Strep tags) VH: not shown VL: QMTQSPSSLSASVGDRVTITCRASQGIRGYLGWYQQKPGKAPKLLIYSASSLQSGVPSRFSGSGSGTDFTLTISSLQPEDFATYYCCSAGFMPYTFGQGTKVEIKR
0.00024 | 85 | 0.78 | ≥ 6 | 2.6 | 0.00028 | 110000 | 1.3 | 0.00022 | 170000 | 0.17 | – | – | – | – | – | – | Fab F5L (Fab, V domains shown, Light chain CDR3 variant of Fab A2-G8; It carries FLAG and Strep tags) VH: not shown VL: QMTQSPSSLSASVGDRVTITCRASQGIRGYLGWYQQKPGKAPKLLIYSASSLQSGVPSRFSGSGSGTDFTLTISSLQPEDFATYYCSAHGFMPYTFGQGTKVEIKR
0.00041 | 65 | 2.07 | ≥ 6 | 4.9 | 0.00104 | 210000 | 1.6 | 0.0005 | 320000 | 0.14 | – | – | – | – | – | – | Fab B1 (Fab, V domains shown, It carries FLAG and Strep tags) VH: not shown VL: QMTQSPSSLSASVGDRVTITCRASQGIRGYLGWYQQKPGKAPKLLIYSASSLQSGVPSRFSGSGSGTDFTLTISSLQPEDFATYYCAEYIRMPYTFGQGTKVEIKR
0.00027 | 75 | 0.48 | ≥ 6 | 3.6 | 0.00069 | 190000 | 0.8 | 0.00024 | 290000 | 0.09 | – | – | – | – | – | – | Fab D5 (light chain CDR3 variant of A2-G8) (Fab, V domains shown, It carries FLAG and Strep tags) VH: not shown VL: QMTQSPSSLSASVGDRVTITCRASQGIRGYLGWYQQKPGKAPKLLIYSASSLQSGVPSRFSGSGSGTDFTLTISSLQPEDFATYYCASQGWMPYTFGQGTKVEIKR
0.0003 | 70 | 1.46 | ≥ 6 | 5.4 | 0.00073 | 130000 | 1.4 | 0.00027 | 190000 | 0.19 | – | – | – | – | – | – | Fab D6L (Fab, V domains shown, Light chain CDR3 variant of Fab A2-G8; It carries FLAG and Strep tags) VH: not shown VL: QMTQSPSSLSASVGDRVTITCRASQGIRGYLGWYQQKPGKAPKLLIYSASSLQSGVPSRFSGSGSGTDFTLTISSLQPEDFATYYCGEWLSMPYTFGQGTKVEIKR
0.00048 | 70 | 5.45 | – | 4.3 | 0.00079 | 190000 | 1.7 | 0.0005 | 300000 | 2.01 | – | – | – | – | – | – | Fab B9 (Fab, V domains shown, It carries FLAG and Strep tags; also called B9L) VH: not shown VL: QMTQSPSSLSASVGDRVTITCRASQGIRGYLGWYQQKPGKAPKLLIYSASSLQSGVPSRFSGSGSGTDFTLTISSLQPEDFATYYCAGTGFMPYTFGQGTKVEIKR
0.00044 | 68 | 1.65 | ≥ 6 | 5.5 | 0.00087 | 160000 | 1.8 | 0.00046 | 250000 | 0.38 | – | – | – | – | – | – | Fab A12 (Fab, V domains shown, Light chain CDR3 variant of Fab A2-G8; It carries FLAG and Strep tags) VH: not shown VL: QMTQSPSSLSASVGDRVTITCRASQGIRGYLGWYQQKPGKAPKLLIYSASSLQSGVPSRFSGSGSGTDFTLTISSLQPEDFATYYCGEWAYMPYTFGQGTKVEIKR

Further lines, the binder ahead of its results:

Binder | koff [1] [s⁻¹] | % Inhibition SCF Binding ELISA Assay [2] [%] | IC50 TF-1 cynoSCF Assay [3] [µg/mL] | TF-1 proliferation IC50, fold lower than the A2-G8 Mab [4] [fold] | Kd [5] [nM] | koff [5] [s⁻¹] | kon [5] [M⁻¹ s⁻¹] | Kd [6] [nM] | koff [6] [s⁻¹] | kon [6] [M⁻¹ s⁻¹] | IC50 TF-1 huSCF Assay [7] [µg/mL] | TF-1 Fab assay IC50 [8] [µg/mL] | Kd [9] [nM] | percent inhibition of SCF-induced TF-1 proliferation at 200 ug/ml Fab [10] [%] | percent inhibition of SCF-induced TF-1 proliferation at 200 ug/ml Fab [4] [%] | Kd [11] [nM] | Efficacy IC50 (TF-1 proliferation assay, Fab) [12] [µg/mL]
Fab A2-A1 (Fab, V domains shown) VH: not shown VL: DIQMTQSPSSLSASVGDRVTITCRASQGISSYLAWYQQKPGKAPKLLIYAASSLQSGVPSRFSGSGSGTDFTLTISSLQPEDFATYYCQQYSGMPYTFGQGTKVEIK | – | – | – | – | – | – | – | – | – | – | – | 25 | 57 | – | – | – | –
Fab A2-D12 (Fab, V domains shown) VH: not shown VL: DIQMTQSPSSLSASVGDRVTITCRASQGIWLYLSWYQQKPGKAPKLLIYAASSLQSGVPSRFSGSGSGTDFTLTISSLQPEDFATYYCQQYSGMPYTFGQGTKVEIK | – | – | – | – | – | – | – | – | – | – | – | – | 18 | – | – | – | –
Fab A2-E8 (Fab, V domains shown) VH: not shown VL: DIQMTQSPSSLSASVGDRVTITCRASQGIFKYLAWYQQKPGKAPKLLIYAASSLQSGVPSRFSGSGSGTDFTLTISSLQPEDFATYYCQQYSGMPYTFGQGTKVEIK | – | – | – | – | – | – | – | – | – | – | – | 8 | 17 | – | – | – | –
Fab A2-H8 (Fab, V domains shown) VH: not shown VL: DIQMTQSPSSLSASVGDRVTITCRASQGIIGYLGWYQQKPGKAPKLLIYRASSLQSGVPSRFSGSGSGTDFTLTISSLQPEDFATYYCQQYSGMPYTFGQGTKVEIK | – | – | – | – | – | – | – | – | – | – | – | 25 | 44 | – | – | – | –
Fab A8 (first screen, Vλ1) (Fab, V domains shown, It carries FLAG and Strep tags) VH: not shown VL: DIVLTQPPSVSGAPGQRVTISCSGSSSNIGSNYVSWYQQLPGTAPKLLIYDNNQRPSGVPDRFSGSKSGTSASLAITGLQSEDEADYYCQSRDHYVVRWVFGGGTKLTVL | – | – | – | – | – | – | – | – | – | – | – | – | – | > 100 | > 100 | 9.7 | 30
